Assay: yeast display, Sf9 membrane polyspecificity reagent, FACS + sequencing; frameworks hold sequencing errors
Method in brief: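 Galactose induction of a Saccharomyces cerevisiae BJ5465 synthetic nanobody display library ran 36–48 hours. The cells were then stained for 1 hour at 4 °C with 10% biotinylated, detergent-solubilized Sf9 membrane reagent, pulled down on streptavidin microbeads and FACS-sorted into low and high (top ~1%) gates on expression and reagent-binding fluorescence. Labels for polyreactivity follow the gate of origin.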

Sequence | polyreactivity (PSR sort gate)
QVQLVESGGGLVQAGGSLRFSCAASGGTFWYYAMGWYRQAPGKERELDASISRGGSTNYADSVKGRFTISRDNAKNTVYLQMNSLKPEDTAVYYCIAGLRVGPRRYVDYEYDYWGQGTQVTVSS | low polyreactivity
QVQLVESGGGLVQAGGSLRFSCAASGIIFYFYTMGWYRQAPGKERELVAAISSSGGRTFYADSVKGRFTISRDHAKNTVYLQMNSLKPEDTAVYYCAAGYPYGGDYWGQGTQVTVSS | high polyreactivity
QVQLVESGGGLVQAGGSLRFSCAASGLIFRGYVMGWYRQAPGKERELVAAISRRGVNTYYADSVKGRFTISRDNAKNTVYLQMNSLKPEDTAVYYCAAETHVGWPAKFDYWGQGTRVTVSS | high polyreactivity
QVQLVESGGGLVQAGGSLRFSCAASGLTFSWNAMGWDRQAPGQERELVAAITSSGTSTYYADSVKGRFSISRDNAKITVYLQMHSLKPEDTAVYYGAAEGDYWGWEDDYWGQGTQVTVSS | high polyreactivity
QVQLVESGGGLVQAGGSLRFSCAASGRIFDYYAMGGYRQAPGKERELVATINVSDGSTYYADSVKGRFTISRDNAKNTVYLQMNSLKPEDTAVYYCAAAGWVPFDSLDLNYWGQGTQVTVSS | low polyreactivity
QVQLVESGGGLVQAGGSLRFSCAASGRIFGRYAMGWYRQAPGKERELDAAISYSGGSTYYADSVKGRFTISRDNAKNTVYLQMNSLKPEDTAVYYCAVVVYQYTPSQRFYYWGQGTQVTVSS | high polyreactivity
QVQLVESGGGLVQAGGSLRFSCAASGRIFSIYAMGWYRQAPGKERELVAAISKRGGSTSYADSVKGRFTISRDNAKNTVYLQMNSLKPEDTAVYYCNARGWIPARGWDDYYWGQGTQVTVSS | high polyreactivity
QVQLVESGGGLVQAGGSLRFSCAASGRIFYANAMGWYRQAPGKERELVAAISSGGSTYYADSVKGRFTISRDNAKNTVFLQMNSLKPEDTAVYYCAVYTHKKVRPEYVYWGQGTQVTVSS | low polyreactivity
QVQLVESGGGLVQAGGSLRFSCAASGRNFVVYAMGWYRQAPRKEREFVAAITWSGDSTTYYADSVKGRFTISRDNAMTTFYLQLKSLKPDDTAVYYCASEGDGANGGAYDYWGQGTQVNVSS | low polyreactivity
QVQLVESGGGLVQAGGSLRFSCAASGRTFYGYAMGWYRQAPGKERELVAAITRSGGSTYYADSVKGRFTISRDNAKNTVYLQMNSLKPEDTAVYYCAAGGQARHDYWGQGTQVTVSS | low polyreactivity
QVQLVESGGGLVQAGGSLRFSCAASGSIIYFYAMGWYRQAPGKERELVATITSGGRTYYADSVKGRFTISRDTAKNTVYLQMNSLKPEDTAVYYCNRRPVSYRYSSYNYDYLGQGTQVTVSS | high polyreactivity
QVQLVESGGGLVQAGGSLRFSCAASGSILSKNAMGWYRQAPGKERELVAAISSGGSTYYADSVKGRFTISRDKAKNTVYLQLNSLKPEDTAVYYCATYCTSVAYHLYYWGQGTQVTVSS | low polyreactivity
QVQLVESGGGLVQAGGSLRFSCAASGSTFGDYTMGWYRQAPGKERELVAAISTSGTITYYADSVKGRFTISRDNAKNTVYLQMNSLKPEDTAVYYCAKLSQYTPVNDGYYWGQGTQVTVSS | low polyreactivity
QVQLVESGGGLVQAGGSLRFSCAASGSTFPYYAMGLYRQAPGKERELVATITKRGGRTYYADSVKGRFTISRDNAKNTVYLQMISLKPEDTAVYYCAARYRFAVTYEYWGQGTQVTVSS | high polyreactivity
QVQLVESGGGLVQAGGSLRFSCAASGYIFTPYAMGWYRQAPGKERELVAAISWSGGSTYYADSVKGRFTISRDNEKNTVYLQMNSLKPEDTAVYYCAAESAWGSRVFYSKFYYWGQGTQVTVSS | low polyreactivity
QVQLVESGGGLVQAGGSLRFSCAATGSISYGYAMGWYKQAHGKERELVAAISRRGGTTYFADSVKGRFTISRDNAKNSLYLQINSLKAEDTAVYYCNALLPDLAQYDYWGQGTQVTVSS | high polyreactivity
QVQLVESGGGLVQAGGSLRFSCADSGFTFRTYAMGWYIQAPGKERELVATIRRAGSTYYADSVKGRFTISRDNAKNTVYLQMNSLKPEDTAVYYCAATHYSFSWGYDYWGQGTQVTVSS | high polyreactivity
QVQLVESGGGLVQAGGSLRFSSAASGRTFSSNAMGWYIQAPGKERELVAAISNSGSSTYYADSVKGRFTISRDNAKNTVYLQMNSLKPEDSAVYYCNAVGVYYWWYRLYDYWGQGTQVTVSS | high polyreactivity
QVQLVESGGGLVQAGGSLRFSSPASGGTFFVNAMGWYRQAPGKERELVASITLSGGSSYYADSVKGRFTISRDNAKNTVYLQMNSLKPEDTAVYYCAKGWTRDNEREREDEYWGQGTQGTVSS | low polyreactivity
QVQLVESGGGLVQAGGSLRIICAASGSIFTYNSMGWYREAPGKERELVAAISASGGRTYYADSVKGRFTISRDNAKNTVYLQMNSLKPEDTAVYYCNVLHRSDSGYYYRYDYWGQGTQVTVSS | high polyreactivity
QVQLVESGGGLVQAGGSLRIICPASGNTFAYYAMGWYRQAPGKEREFVAAISGSGGRTYYADSVKGRFTISRDNAKNTVYLQMNILKPEDTAVYYCNARPAGGQGYGYWGQGTQVTVSS | high polyreactivity
QVQLVESGGGLVQAGGSLRISCAASAITFPRNAMGWYREAPGKERELVAAITSVGSTKYADSVKGRFTFSRDNAKNTVYLQMNSLKPEDTAVYYCATRGASAISNSVRWSYYYWGQGTQVTVSS | low polyreactivity

Reference: the nanobody polyreactivity screen of Harvey et al. (2022)
